Consider five molecules from paper PMC2926604 (Nucleic Acids Research, 2010).

First the molecules themselves.
B2: Archaeoglobus fulgidus exosome subunit Rrp41 (natural protein)
chain: MSEFNEKPEKLIVDGLRLDGRKFDELRPIKIEASVLKRADGSCYLEMGKNKVIAAVFGPREVHPRHLQDPSKAIIRYRYNMAPFSVEERKRPGPDRRSIEISKVSKEAFEAVIMKELFPRSAIDIFVEVLQADAGSRTACLNAASVALVDAGVPMKGMITSVAVGKADGQLVLDPMKEEDNFGEADMPFAFLIRNGKIESIALLQMDGRMTRDEVKQAIELAKKGALQIYEMQREAILRRYIEVGEEMDEITEGGEDA
B3: Archaeoglobus fulgidus exosome subunit Rrp41 D180A (natural protein)
chain: MSEFNEKPEKLIVDGLRLDGRKFDELRPIKIEASVLKRADGSCYLEMGKNKVIAAVFGPREVHPRHLQDPSKAIIRYRYNMAPFSVEERKRPGPDRRSIEISKVSKEAFEAVIMKELFPRSAIDIFVEVLQADAGSRTACLNAASVALVDAGVPMKGMITSVAVGKADGQLVLDPMKEEANFGEADMPFAFLIRNGKIESIALLQMDGRMTRDEVKQAIELAKKGALQIYEMQREAILRRYIEVGEEMDEITEGGEDA

The target of series [1] is B2. The series is described as follows: crystal structure.
In series [2] the target is T1, Archaeoglobus fulgidus exosome subunit Rrp42 (Archaeoglobus fulgidus, UniProt O29756 1-259).
T1 sequence: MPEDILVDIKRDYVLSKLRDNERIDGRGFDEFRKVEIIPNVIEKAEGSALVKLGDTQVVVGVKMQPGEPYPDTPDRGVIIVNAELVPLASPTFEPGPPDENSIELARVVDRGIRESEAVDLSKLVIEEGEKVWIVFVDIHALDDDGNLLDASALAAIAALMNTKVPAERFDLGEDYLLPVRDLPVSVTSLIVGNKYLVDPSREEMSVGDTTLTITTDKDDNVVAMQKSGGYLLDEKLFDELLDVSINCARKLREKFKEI
As to the kind of experiment: crystal structure.

Series [3] deals with T2, Archaeoglobus fulgidus exosome subunit Rrp42 Y70A (Archaeoglobus fulgidus, UniProt O29756 1-259, Y70A).
T2 sequence: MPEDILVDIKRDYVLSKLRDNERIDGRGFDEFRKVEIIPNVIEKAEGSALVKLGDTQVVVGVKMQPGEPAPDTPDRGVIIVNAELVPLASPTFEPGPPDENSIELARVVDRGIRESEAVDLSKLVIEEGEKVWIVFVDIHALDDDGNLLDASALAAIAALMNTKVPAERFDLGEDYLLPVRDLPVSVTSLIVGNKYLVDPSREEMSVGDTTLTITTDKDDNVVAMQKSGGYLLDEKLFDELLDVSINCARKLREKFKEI
The series is described as follows: crystal structure.

Series [4] concerns the target T1, Archaeoglobus fulgidus exosome subunit …. The series is described as follows: SAXS.
For series [5], the target named is T3, Rrp41 (archaeal exosome subunit);Rrp42 Y70A;Csl4 (exosome cap) (Archaeoglobus fulgidus (printed …, UniProt O29757;O29756;O30033 1-258;1-259;1-179, |Y70A|)).
T3 sequence 1: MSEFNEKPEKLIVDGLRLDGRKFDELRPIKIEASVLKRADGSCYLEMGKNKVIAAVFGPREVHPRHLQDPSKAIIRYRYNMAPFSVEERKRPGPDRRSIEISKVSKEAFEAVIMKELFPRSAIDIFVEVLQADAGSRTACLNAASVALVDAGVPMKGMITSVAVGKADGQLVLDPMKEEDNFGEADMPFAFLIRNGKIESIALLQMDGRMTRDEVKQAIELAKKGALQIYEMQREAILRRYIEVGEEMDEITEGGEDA
T3 sequence 2: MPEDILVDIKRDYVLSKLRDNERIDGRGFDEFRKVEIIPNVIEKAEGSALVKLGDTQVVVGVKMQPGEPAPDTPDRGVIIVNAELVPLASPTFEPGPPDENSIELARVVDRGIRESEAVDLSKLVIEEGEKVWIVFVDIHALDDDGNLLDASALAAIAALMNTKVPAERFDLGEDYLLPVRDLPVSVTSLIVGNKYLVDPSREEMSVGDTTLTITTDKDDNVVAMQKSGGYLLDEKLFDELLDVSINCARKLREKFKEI
T3 sequence 3: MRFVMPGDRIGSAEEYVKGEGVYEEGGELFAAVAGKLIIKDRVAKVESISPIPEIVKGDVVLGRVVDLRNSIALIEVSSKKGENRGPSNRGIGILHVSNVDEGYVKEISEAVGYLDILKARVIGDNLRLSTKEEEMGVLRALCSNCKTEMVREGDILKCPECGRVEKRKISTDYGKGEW
As to the kind of experiment: X-ray crystallography.

In series [6] the target is T4, Rrp41 (archaeal exosome subunit);Rrp42 (archaeal exosome subunit);Csl4 (exosome cap) (Archaeoglobus fulgidus (printed …, UniProt O29757;O29756;O30033 1-258;1-259;1-179, ||)).
T4 sequence 1: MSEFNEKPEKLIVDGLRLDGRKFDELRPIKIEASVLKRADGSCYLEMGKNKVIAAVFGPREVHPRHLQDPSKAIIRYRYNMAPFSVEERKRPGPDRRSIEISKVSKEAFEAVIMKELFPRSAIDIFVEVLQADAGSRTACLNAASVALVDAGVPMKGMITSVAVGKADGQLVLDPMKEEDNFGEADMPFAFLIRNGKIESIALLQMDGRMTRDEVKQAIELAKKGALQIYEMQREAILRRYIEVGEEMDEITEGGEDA
T4 sequence 2: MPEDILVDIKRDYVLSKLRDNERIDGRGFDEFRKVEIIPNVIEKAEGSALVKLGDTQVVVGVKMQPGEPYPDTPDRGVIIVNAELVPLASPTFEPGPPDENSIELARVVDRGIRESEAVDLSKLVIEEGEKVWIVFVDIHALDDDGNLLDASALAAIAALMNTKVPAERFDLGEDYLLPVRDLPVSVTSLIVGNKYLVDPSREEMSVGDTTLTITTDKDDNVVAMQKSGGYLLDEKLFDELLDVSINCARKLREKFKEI
T4 sequence 3: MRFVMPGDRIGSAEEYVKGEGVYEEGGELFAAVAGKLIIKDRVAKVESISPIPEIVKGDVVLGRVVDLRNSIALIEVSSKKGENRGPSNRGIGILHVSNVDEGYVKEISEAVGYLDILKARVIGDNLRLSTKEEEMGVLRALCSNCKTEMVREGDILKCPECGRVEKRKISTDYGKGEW
As to the kind of experiment: X-ray crystallography.

Series [7] concerns the target B3. The series is described as follows: SAXS.

B1: Archaeoglobus fulgidus exosome cap subunit Csl4 (natural protein)
chain: MRFVMPGDRIGSAEEYVKGEGVYEEGGELFAAVAGKLIIKDRVAKVESISPIPEIVKGDVVLGRVVDLRNSIALIEVSSKKGENRGPSNRGIGILHVSNVDEGYVKEISEAVGYLDILKARVIGDNLRLSTKEEEMGVLRALCSNCKTEMVREGDILKCPECGRVEKRKISTDYGKGEW
As to B1, the binding result in series [1], in series [2] and in series [3] was “binds” each time.

Consider B2, for which the binding result in series [2] and in series [3] was “binds” each time.

On to B3, for which the binding result in series [4] is recorded as “binds”.

On to CCCCUC (ssRNA) [6-mer RNA for crystallization], for which the binding result in series [5] and in series [6] was “binds” throughout.

B4: Archaeoglobus fulgidus exosome cap subunit Rrp4 (natural protein, UniProt O29758 1-223, looked up)
chain: MRKIVLPGDLLSTNPRAAGYGTYVEGGKVYAKIIGLFDQTETHVRVIPLKGRYTPSVGDVVIGIIREVAANGWAVDIYSPYQAFLPVSENPEMKPNKKPNEVLDIGDAIIAKVLNIDPKMKVTLTMKDRICRPIRFGRIVAINPARVPRVIGKKGSMIKLLKSELDVQIVVGQNGLIWVNGDRRKVSIAEEAIYLIEQEAHTEGLTDRVAEFIKRRKADVGIQ
As to B4, the binding result in series [4] and in series [7] was “binds” throughout.
